In the RNAGym collection of RNA variant scans (doi:10.1093/molbev/msab373) one finds reverse-splicing fitness data, which are given here for 84 variants.

First the molecules themselves.
B1: Azoarcus group I ribozyme (parent)
chain: GUGCCUUGCGCCGGGAAACCACGCAAGGGAUGGUGUCAAAUUCGGCGAAACCUAAGCGCCCGCCCGGGCGUAUGGCAACGCCGAGCCAAGCUUCGGCGCCUGCGCCGAUGAAGGUGUAGAGACUAGACGGCACCCACCUAAGGCAAACGCUAUGGUGAAGGCAUAGUCCAGGGAGUGGCGAAAGUCACACAAACCGG

This data set covers variants of B1. Briefly: reverse-splicing fitness (ratio to wild type); higher = more active; in vitro selection; Mg2+ level not given. In outline: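 An in vitro group I ribozyme library with randomized positions was T7-transcribed and gel-purified. In triplicate, 10 pmol RNA in EPPS pH 7.5 was reacted with 50 pmoles of a 30-nt RNA substrate for 1 h at 37 °C across several added MgCl2 levels (1–48 mM), then stopped with EDTA. Products were reverse transcribed from a substrate-complementary primer, PCR-amplified and sequenced (HiSeq 4000). Fitness is a variant's read proportion after selection over that before, normalised to wild type.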
With C82A A111U A120U A145C C150U C169U, the reverse-splicing fitness was 0.00328.
C82A A111U A120U A145C C150U C169G: the reverse-splicing fitness came to 0.0029.
For C82A A111U A120U A145C C150U C169A, the reverse-splicing fitness worked out at 0.00277.
C82A A111U A120U A145C C150U C169G U176G: the reverse-splicing fitness was found to be 0.00248.
Regarding C82A A111U A120U A145C C150U C169G U176C, the reverse-splicing fitness is 0.00274.
Consider C82A A111U A120U A145C C150U C169G U176A, for which the reverse-splicing fitness is 0.00366.
As to C82A A111U A120U C150A, the reverse-splicing fitness came to 0.00876.
In the case of C82A A111U A120U C150U it was 0.016; in that of C82A A111U A120U C150G, 0.00757; in that of C82A A111U A120U A145U C150A U176A, 0.00486.
In the case of C82A A111U A120U A145U C150A U176G it was 0.00236; in that of C82A A111U A120U A145U C150A U176C, 0.00625; in that of C82A A111U A120U C169A U176G, 0.00243.
As for C82A A111U A120U C169A U176C, the reverse-splicing fitness was determined as 0.0039.
C82A A111U A120U C169A U176A: the reverse-splicing fitness came out at 0.00348.
Turning to C82A A111U A120U A145C C150U C169A U176G, the reverse-splicing fitness turned out to be 0.00224.
Turning to C82A A111U A120U A145C C150U C169A U176A, the reverse-splicing fitness stood at 0.00281.
In the case of C82A A111U A120U A145C C150U C169A U176C it was 0.00232; in that of C82A A111U A120U A145C C150A C169U U176A, 0.00277.
With C82A A111U A120U A145C C150A C169U U176C, the reverse-splicing fitness was determined as 0.00287.
As for C82A A111U A120U A145C C150A C169U U176G, the reverse-splicing fitness worked out at 0.00186.
Turning to C82A A111U A120U A145U C150U C169U, the reverse-splicing fitness was 0.00362.
Take C82A A111U A120U A145U C150U C169A: the reverse-splicing fitness came to 0.00293.
As to C82A A111U A120U A145U C150U C169G, the reverse-splicing fitness came out at 0.00407.
Turning to C82A A111U A120U A145C C150U C169U U176C, the reverse-splicing fitness was 0.00282.
Take C82A A111U A120U A145C C150U C169U U176G: the reverse-splicing fitness is 0.00236.
With C82A A111U A120U A145C C150U C169U U176A, the reverse-splicing fitness worked out at 0.00291.
In the case of C82A A111U A120U A145G C150U U176C, the reverse-splicing fitness stood at 0.0125.
Turning to C82A A111U A120U A145G C150U U176A, the reverse-splicing fitness amounted to 0.01.
In the case of C82A A111U A120U A145G C150U U176G, the reverse-splicing fitness stood at 0.00393.
Regarding C82A A111U A120U A145G C150U C169A U176C, the reverse-splicing fitness is 0.00423.
Regarding C82A A111U A120U A145G C150U C169A U176A, the reverse-splicing fitness turned out to be 0.00815.
Next, C82A A111U A120U A145G C150U C169A U176G: 0.00259; C82A A111U A120U A145G C169U U176G: 0.00182; C82A A111U A120U A145G C169U U176A: 0.00414.
For C82A A111U A120U A145G C169U U176C, the reverse-splicing fitness came to 0.00428.
As to C82A A111U A120U C150U C169A, the reverse-splicing fitness came to 0.00594.
Turning to C82A A111U A120U C150U C169G, the reverse-splicing fitness is 0.00623.
Regarding C82A A111U A120U C150U C169U, the reverse-splicing fitness was determined as 0.00507.
For the variant C82A A111U A120U A145U C150U, the reverse-splicing fitness amounted to 0.0173.
As for C82A A111U A120U A145U C150A, the reverse-splicing fitness came to 0.00619.
Turning to C82A A111U A120U A145U C150G, the reverse-splicing fitness came to 0.00631.
For the variant C82A A111U A120U A145C U176C, the reverse-splicing fitness was determined as 0.00758.
C82A A111U A120U A145C U176A: the reverse-splicing fitness was found to be 0.00613.
In the case of C82A A111U A120U A145C U176G, the reverse-splicing fitness was 0.00274.
As for C82A A111U A120U C150G C169A U176C, the reverse-splicing fitness amounted to 0.00557.
As for C82A A111U A120U C150G C169A U176A, the reverse-splicing fitness worked out at 0.00623.
Consider C82A A111U A120U C150G C169A U176G, for which the reverse-splicing fitness was found to be 0.00311.
For C82A A111U A120G C169A, the reverse-splicing fitness turned out to be 0.0102.
In the case of C82A A111U A120G C169G, the reverse-splicing fitness worked out at 0.0106.
For C82A A111U A120G C169U, the reverse-splicing fitness stood at 0.00987.
C82A A111U A120U C150G C169U U176A: the reverse-splicing fitness was 0.00341.
As for C82A A111U A120U C150G C169U U176C, the reverse-splicing fitness turned out to be 0.00451.
Turning to C82A A111U A120U C150G C169U U176G, the reverse-splicing fitness was 0.00327.
For C82A A111U A120U C150U C169A U176A, the reverse-splicing fitness stood at 0.00575.
In the case of C82A A111U A120U C150U C169A U176C, the reverse-splicing fitness was 0.00344.
Take C82A A111U A120U C150U C169A U176G: the reverse-splicing fitness is 0.00226.
On to C82A A111U A120U A145G C150U C169U U176A, for which the reverse-splicing fitness turned out to be 0.00537.
For C82A A111U A120U A145G C150U C169U U176G, the reverse-splicing fitness turned out to be 0.00286.
For C82A A111U A120U A145G C150U C169U U176C, the reverse-splicing fitness is 0.00506.
For C82A A111U A120U A145U C150U U176G, the reverse-splicing fitness stood at 0.00385.
On to C82A A111U A120U A145U C150U U176A, for which the reverse-splicing fitness worked out at 0.00828.
For C82A A111U A120U A145U C150U U176C, the reverse-splicing fitness came out at 0.00878.
C82A A111U A120U U176A: the reverse-splicing fitness came to 0.00842.
Next, C82A A111U A120U U176G: 0.00275.
Next, C82A A111U A120U U176C: 0.0105.
As for C82A A111U A145C C150A C169A U176G, the reverse-splicing fitness worked out at 0.00855.
As for C82A A111U A145C C150A C169A U176A, the reverse-splicing fitness was determined as 0.0149.
As to C82A A111U A145C C150A C169A U176C, the reverse-splicing fitness turned out to be 0.00757.
C82A A111U A120G C150U C169A U176A: the reverse-splicing fitness worked out at 0.0156.
For C82A A111U A120G C150U C169A U176G, the reverse-splicing fitness amounted to 0.00525.
Turning to C82A A111U A120G C150U C169A U176C, the reverse-splicing fitness came to 0.0163.
Consider C82A A111U A120U A145C C150A C169G U176A, for which the reverse-splicing fitness stood at 0.00303.
With C82A A111U A120U A145C C150A C169G U176G, the reverse-splicing fitness came to 0.0026.
As for C82A A111U A120U A145C C150A C169G U176C, the reverse-splicing fitness came out at 0.00303.
C82A A111U A120U A145G C169G: the reverse-splicing fitness worked out at 0.00467.
On to C82A A111U A120U A145G C169A, for which the reverse-splicing fitness was 0.0037.
For C82A A111U A120U A145G C169U, the reverse-splicing fitness came out at 0.00488.
C82A A111U A120U A145U C150A C169A U176A: the reverse-splicing fitness was determined as 0.00303.
C82A A111U A120U A145U C150A C169A U176G: the reverse-splicing fitness is 0.00212.
In the case of C82A A111U A120U A145U C150A C169A U176C it was 0.00269.
On to C82A A111U A120G C150U C169U U176A, for which the reverse-splicing fitness is 0.0197.
In the case of C82A A111U A120G C150U C169U U176C it was 0.0177.
For C82A A111U A120G C150U C169U U176G, the reverse-splicing fitness was 0.00708.
